The record followed here is patent US20260158142A1 (published 2026).

In the assay the target is T1, human amyloid beta (Aβ42), T cell epitope peptide on H2-IAb (mouse).
T1 peptide: KLVFFAEDVGSNKGA
In words: multimer staining.

B1: Aβ-Th1 TCR (TCR, V domains shown)
Valpha: QQQVRQSPQSLTVWEGETAILNCSYENSAFDYFPWYQQFPGEGPALLISILSVSNKKEDGRFTIFFNKREKKLSLHIADSQPGDSATYFCAGGDYANKMIFGLGTILRVRP
Vbeta: DPKIIQKPKYLVAVTGSEKILICEQYLGHNAMYWYRQSAKKPLEFMFSYSYQKLMDNQTASSRFQPQSSKKNHLDLQITALKPDDSATYFCASSQDRSYNSPLYFAAGTRLTVT
Turning to B1, the binding result is reported as “recognises”.
